Source: publication PMC9200798

Assays:
[1] = test system: P45520; assay: microfluidics-coupled TIRF microscopy of single filaments; barbed end depolymerization of ADP-Pi filaments, F-buffer with KCl replaced by 40 mM K2HPO4 and 10 mM KH2PO4; settings: other: microfluidics-coupled TIRF microscopy of single filaments
[2] = molecular target: Leishmania major actin (Leishmania major) (UniProt P45520); assay: microfluidics-coupled TIRF microscopy of single filaments; pointed end depolymerization: pre-polymerized ADP-F-actin injected over 10 nM biotin-gelsolin held on neutravidin, F-buffer with 0.4 mM CaCl2, then F-buffer
[3] = molecular target: Leishmania major actin (Leishmania major) (UniProt P45520); assay: microfluidics-coupled TIRF microscopy of single filaments; barbed end polymerization from surface-anchored spectrin-actin seeds, G-actin with equimolar profilin in F-buffer (5 mM Tris-HCl pH 7.4, 50 mM KCl, 1 mM MgCl2); segmented, mixed or ATP-ATTO-488 filaments
[4] = molecular target: Leishmania major actin (Leishmania major) (UniProt P45520)
[5] = molecular target: Leishmania major actin (Leishmania major) (UniProt P45520); remark: listed apart in the source
[6] = molecular target: rabbit skeletal muscle α-actin (rabbit (Oryctolagus cuniculus)) (UniProt P68135)

Question: For Leishmania major actin, which “barbed end depolymerization rate, ADP-Pi-actin” value [1] is on record?
Answer: ~6 subunits/s

Question: How did the pointed end depolymerization rate, ADP-actin [2] turn out when “Leishmania major actin (from UniProt P45520 2-376) (natural protein)” was run?
Answer: 3.5 subunits/s

Question: And the barbed end polymerization rate constant (with equimolar LmProfilin) (subunits/s/μM) [3]?
Answer: 6

Question: Which global fragmentation rate of LmActin filaments by LmCofilin against RbActin filaments by mammalian cofilin-1, microfluidics-coupled TIRF microscopy [4] does the source give for “Leishmania major cofilin (natural protein)” here?
Answer: 100 fold

Question: For “Leishmania major twinfilin (natural protein)”, which barbed end depolymerization rate of ADP-LmActin filaments without actin monomers, with LmTwf (0.1 and 1 μM) against buffer only [5] is on record?
Answer: 3 subunits/s

Question: And the barbed end polymerization rate with 1 μM LmActin, 1 μM LmProfilin and 0–4 μM LmTwf; net depolymerization above 0.2 μM LmTwf [5]?
Answer: 8 subunits/s

Question: And the depolymerization rate of ADP-RbActin filaments with LmTwf [6]?
Answer: 0.5 subunits/s
